Test results: PMC13079917

Target: Monoclonal antibody L9 (human IgG)
Experiment: KinExA (kinetic exclusion assay); equilibrium in solution; antigen serially diluted into a constant concentration of antibody (human IgG as constant binding partner); equilibrated 24 h; room temperature (about 25 °C); 1x HBS-EP+ pH 7.4 with BSA at 1 mg/mL; antigen cross-linked to beads as capturing reagent; n-curve analysis

Monoclonal antibody L9 (human IgG), sequence (heavy, as listed by the source, chain 1 of 2): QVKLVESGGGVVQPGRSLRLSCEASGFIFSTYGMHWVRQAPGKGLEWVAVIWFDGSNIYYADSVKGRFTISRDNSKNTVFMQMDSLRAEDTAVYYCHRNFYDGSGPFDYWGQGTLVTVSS
Monoclonal antibody L9 (human IgG), sequence (light, as listed by the source, chain 2 of 2): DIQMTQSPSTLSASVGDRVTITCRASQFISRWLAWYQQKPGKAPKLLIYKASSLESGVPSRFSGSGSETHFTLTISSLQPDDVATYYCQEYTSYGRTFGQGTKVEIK

Binder	Kd [nM]
NANPNVDPNANPNVDPNANPNVDP (modifications not checked) [triple-NPNV peptide]	0.059
NANPNVDPNANPNVDP (modifications not checked) [double-NPNV peptide]	4.56
